Patent US20220196651A1 (ALX ONCOLOGY, published 2022)
Values belong to the binder of their own block, whether it stands above or below them.

Molecular target: Drug A
Assay: cell-based or functional assay

B2: anti-SIRP multimer D (antibody, V domains shown)
VH: DVQLVESGGGVVRPGESLRLSCAASGFTFSSNAMSWVRQAPGKGLEWLAGISAGGSDTYYPASVKGRFTISRDNSKNTLYLQMNTLTAEDTAVYYCARETWNHLFDYWGLGTLVTVSS
VL: ALTQPASVSANPGETVKIACSGGDYYSYYYGWYQQKAPGSALVTVIYSDDKRPSDIPSRFSGSASGSTATLTITGVRAEDEAVYYCGGYDYSTYANAFGAGTTLTVL
molar ratio to Drug A (130 nM) at which no agglutination was observed, IAT tube assay: 2.5 x molar ratio to Drug A
molar ratio to Drug A (130 nM) at which no interference was observed, SPRCA: ≥ 0.63 x molar ratio to Drug A

B3: anti-SIRP multimer G (antibody, mouse IgG2a)
heavy: DVQLVESGGGVVRPGESLRLSCAASGFTFSSNAMSWVRQAPGKGLEWLAGISAGGSDTYYPASVKGRFTISRDNSKNTLYLQMNTLTAEDTAVYYCARETWNHLFDYWGLGTLVTVSSAKTTAPSVYPLAPVCGDTTGSSVTLGCLVKGYFPEPVTLTWNSGSLSSGVHTFPAVLQSDLYTLSSSVTVTSSTWPSQSITCNVAHPASSTKVDKKIEPRGPTIKPCPPCKCPAPNLLGGPSVFIFPPKIKDVLMISLSPIVTCVVVDVSEDDPDVQISWFVNNVEVHTAQTQTHREDYNSTLRVVSALPIQHQDWMSGKEFKCKVNNKDLPAPIERTISKPKGSVRAPQVYVLPPPEEEMTKKQVTLTCMVTDFMPEDIYVEWTNNGKTELNYKNTEPVLDSDGSYFMYSKLRVEKKNWVERNSYSCSVVHEGLHNHHTTKSFSRTPG
light: ALTQPASVSANPGETVKIACSGGDYYSYYYGWYQQKAPGSALVTVIYSDDKRPSDIPSRFSGSASGSTATLTITGVRAEDEAVYYCGGYDYSTYANAFGAGTTLTVLGQPKSSPSVTLFPPSSEELETNKATLVCTITDFYPGVVTVDWKVDGTPVTQGMETTQPSKQSNNKYMASSYLTLTARAWERHSSYSCQVTHEGHTVEKSLSRADCS
molar excess of Multimer G that mitigated interference, gel card, Drug A 1000 µg/mL: 4 fold molar excess relative to Drug A
molar excess of Multimer G that mitigated interference, gel card, Drug A 2000 µg/mL: 6 fold molar excess relative to Drug A
molar excess of Multimer G that mitigated interference, gel card, Drug A between 0.1 and 100 (printed ng/mL): 3 fold molar excess relative to Drug A

Results, then the binder that gave them:

molar ratio to Drug A at which interference was mitigated, SPRCA: ≥ 1.25 x molar ratio to Drug A
B1: anti-SIRP multimer F (antibody, mouse IgG1, N297A, V domains shown)
VH: DVQLVESGGGVVRPGESLRLSCAASGFTFSSYAMSWVRQAPGKGLEWLAGISAGGSDTYYIDSVKGRFTISRDNPKNSLYLQMSSLTAEDTAVYYCARETWNHLFDYWGLGTLVTVSS
VL: ALTQPASVSANPGETVKITCSGGDYYSTYYAWYQQKSPGSAPVTVIHSDDKRPSDIPSRFSGSASGSAATLIITGVRVEDEAVYYCGGYDGRTYINTFGAGTTLTVLG

molar ratio to Drug A at which interference was mitigated, SPRCA: ≥ 1.25 x molar ratio to Drug A
B4: anti-SIRP multimer E (antibody, mouse IgG1, N297A)
heavy: DVQLVESGGGVVRPGESLRLSCAASGFTFSSNAMSWVRQAPGKGLEWLAGISAGGSDTYYPASVKGRFTISRDNSKNTLYLQMNTLTAEDTAVYYCARETWNHLFDYWGLGTLVTVSSAKTTPPSVYPLAPGSAAQTNSMVTLGCLVKGYFPEPVTVTWNSGSLSSGVHTFPAVLQSDLYTLSSSVTVPSSTWPSETVTCNVAHPASSTKVDKKIVPRDCGCKPCICTVPEVSSVFIFPPKPKDVLTITLTPKVTCVVVDISKDDPEVQFSWFVDDVEVHTAQTQPREEQFASTFRSVSELPIMHQDWLNGKEFKCRVNSAAFPAPIEKTISKTKGRPKAPQVYTIPPPKEQMAKDKVSLTCMITDFFPEDITVEWQWNGQPAENYKNTQPIMDTDGSYFIYSKLNVQKSNWEAGNTFTCSVLHEGLHNHHTEKSLSHSPG
light: ALTQPASVSANPGETVKIACSGGDYYSYYYGWYQQKAPGSALVTVIYSDDKRPSDIPSRFSGSASGSTATLTITGVRAEDEAVYYCGGYDYSTYANAFGAGTTLTVLGQPKSSPSVTLFPPSSEELETNKATLVCTITDFYPGVVTVDWKVDGTPVTQGMETTQPSKQSNNKYMASSYLTLTARAWERHSSYSCQVTHEGHTVEKSLSRADCS
